Target: T1, NgR1 (Mus musculus, UniProt Q99PI8)
T1 chain: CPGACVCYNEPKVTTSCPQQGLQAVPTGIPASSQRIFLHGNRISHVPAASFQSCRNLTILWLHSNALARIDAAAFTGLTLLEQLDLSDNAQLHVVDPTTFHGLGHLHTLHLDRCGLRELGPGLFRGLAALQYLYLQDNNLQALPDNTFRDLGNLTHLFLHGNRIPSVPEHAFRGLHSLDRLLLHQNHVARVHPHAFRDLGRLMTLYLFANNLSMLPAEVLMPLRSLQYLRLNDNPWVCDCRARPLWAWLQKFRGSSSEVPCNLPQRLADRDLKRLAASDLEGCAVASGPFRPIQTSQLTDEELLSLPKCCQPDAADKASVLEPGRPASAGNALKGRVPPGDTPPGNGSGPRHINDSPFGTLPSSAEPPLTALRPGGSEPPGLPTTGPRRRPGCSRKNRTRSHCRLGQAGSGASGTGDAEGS
Test: AP-fusion cell-surface saturation binding

Kd: ~6.8 nM
B1: LOTUS (Crtac1B) 29-602 (antibody)
chain: SQRAEPMFTAVTNSVLPPDYDSNPTQLNYGVAVTDVDHDGDFEIVVAGYTGPNLVLKYNRAQNRLVNIAVDERSSPYYALRDRQGNAIGVTACDIDGDGREEIYFLNTNNAFSGVATYTDKLFKFRNNRWEDILSDDVNVARGVASLFAGRSVACVDRTGSGRYSIYIANYAYGDVGPDALIEMDPEASDLSRGILALRDVAAEAGVSKYTAGRGVSVGPILSSSASDIFCDNENGPNFLFHNQGNGTFVDTAASAGVDDPHQHGRGVALADFNRDGKVDIVYGNWNGPHRLYLQMSAHGKVRFRDIASPKFSTPSPVRTVIAADFDNDQELEVFFNNIAYRSSSANRLFRVIRREHGDPLIEELNPGDALEPEGRGTGGVVTDFDGDGMLDLILSHGESMAQPLSVFRGNQGFSNNWLRVVPRTRFGAFARGAKVVLYTKKSGAHLRIIDGGSGYLCEMEPVAHFGLGRDEASSVEVTWPDGKMVSRSVASEEMNSVLEILYPQDEDKLQNTAPLECGQGFSQQDNGHCMDTNECIQFPFVCPRDKPVCVNTYGSYRCRTNKRCNRGYEPNED
modifications: alkaline phosphatase fusion of LOTUS

From paper PMC3244695 (2012)
